Source: patent US20250051407A1, “De novo designed sequence-specific DNA binding proteins” (University of Washington, priority 2023, published 2025)

How the values were obtained:
13 unique dsDNA targets = test: All-by-all yeast surface display screen of DBP design hits; type: binding
Outline: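 EBY100 yeast displaying designs were induced 16–24 h at 30°C, then labelled with biotinylated dsDNA either with avidity (SAPE premixed at one-quarter of target concentration) or without (target, then SAPE/FITC). Competition ran without avidity at 1 μM biotinylated duplex plus 8 μM unlabelled competitor. Flow cytometry read-out is the SAPE/FITC ratio over gated expressing cells.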

[1] = system: synTF-specific cis-regulatory elements (CRE) in HEK293T cells; test: Transcriptional activation by synTFs in HEK293T cells (ENGRAM); type: cell-based; conditions: DBP fused to GCN4 dimerization domain and VP64; HEK293T cells expressing PEmax; dependent on spacing between motifs
Outline: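 GCN4–VP64 fusions were co-transfected into PEmax-expressing HEK293T cells with barcoded pegRNA recorders driven by CREs of 4 palindromic repeats (spacings 1, 3 or 5 bp), with a TCF-LEF recorder as control (ratio 2:2:2:1). After 2 days, the HEK3 DNA TAPE was sequenced. Activation is given as barcode fold change versus control, in triplicate.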

B1: DBP48: designed DNA-binding protein, SEQ ID NO: 22, DNA target D (protein)
chain: MTPEEIAEAKRIGKEVKERRKELGLTQRELAEKLGVSRSTVSDIENGRRLPSEELLKKIKEILGV
13 unique dsDNA targets; 1 μM dsDNA with avidity, including designed target sequence
  Number of the 13 tested DNA target sequences preferentially bound: less than 3
13 unique dsDNA targets; all-by-all screen with Rosetta-predicted motifs
  Binding specificity versus design models: bound with specificity closely consistent with the design models
13 unique dsDNA targets; yeast surface display, 1 μM dsDNA with avidity
  Binding to initial design target: bound weakly
13 unique dsDNA targets; yeast surface display, 1 μM dsDNA with avidity, alternate target H (DBP90), D (DBP48), C (DBP57)
  Binding to alternate target sequence: strongly
[1]
  Fold activation of synTFs measured as normalized barcode abundance in the DNA TAPE: didn't show detectable activation
